Measurements published in paper PMC3896444, “Structural Basis of Thermal Stability of the Tungsten Cofactor Synthesis Protein MoaB from Pyrococcus furiosus” (PLoS ONE, 2014).
Where “and” joins values, the source holds several entries; their conditions need not be identical. Equal entries are not always repeated.

Assays:
[1] = target: PfuMoaB-H3 variant (α3-helix exchanged against the corresponding helix of E. coli MogA) (Pyrococcus furiosus) (UniProt Q8U3T3); assay: cross-linking; 0.5 mg/ml protein, 2 mM EDC, 0.1 M MES pH 6.0, 0.5 M NaCl, 3 h; SDS-PAGE; trimer bands analysed by LC-MS/MS
[2] = target: PfuMoaB-H3 variant (α3-helix exchanged against the corresponding helix of E. coli MogA) (Pyrococcus furiosus) (UniProt Q8U3T3); assay: cross-linking; 0.5 mg/ml protein, 1.5 mM BS3, 20 mM sodium phosphate pH 8.0, 0.2 M NaCl, 30 min; SDS-PAGE
[3] = target: PfuMoaB-H3 variant (α3-helix exchanged against the corresponding helix of E. coli MogA) (Pyrococcus furiosus) (UniProt Q8U3T3); assay: SEC; analytical Superdex 200 10/300, 0.1 M Tris pH 8.0, 0.2 M NaCl, 0.5 ml/min, 4°C; 5-10 nmol of Ni-NTA purified protein; masses by standard proteins
[4] = target: the molecule itself; assay: as above
[5] = target: the molecule itself; assay: crystal structure; space group P3(1)21, three chains in the asymmetric unit, hexamer by the two-fold crystallographic axis; crystals from 0.1 MES pH 6.0, 40% PEG 400, 5% PEG 3000, 20°C; 2.5 Å
[6] = target: the molecule itself; assay: cross-linking; 0.5 mg/ml protein, 2 mM EDC, 0.1 M MES pH 6.0, 0.5 M NaCl, 3 h; SDS-PAGE; trimer bands analysed by LC-MS/MS
[7] = target: the molecule itself; assay: SEC; preparative Superdex 200 16/60 pg, Ni-NTA purified protein; fractions analysed by SDS-PAGE

Molecule: PfuMoaB-H3 variant (α3-helix exchanged against the corresponding helix of E. coli MogA) (from UniProt Q8U3T3 1-169) (enzyme)
- stoichiometry N [1]: 2 and 3
- stoichiometry N [2]: 3 and 2
- stoichiometry N [3]: 3 and 2

B1: E. coli MogA (enzyme, Escherichia coli, UniProt P0AF03 1-195, looked up)
chain: MNTLRIGLVSISDRASSGVYQDKGIPALEEWLTSALTTPFELETRLIPDEQAIIEQTLCELVDEMSCHLVLTTGGTGPARRDVTPDATLAVADREMPGFGEQMRQISLHFVPTAILSRQVGVIRKQALILNLPGQPKSIKETLEGVKDAEGNVVVHGIFASVPYCIQLLEGPYVETAPEVVAAFRPKSARRDVSE
notes: MogA, MPT-adenylyl-transferase of Escherichia coli; also called EcoMogA; MogA (E. coli); source: E. coli, purified (Ni-NTA); not shown: His-tag, N-terminal, kept
- stoichiometry N [4]: 3

B2: E. coli MoaB (natural protein, Escherichia coli, UniProt P0AEZ9 1-170, looked up)
chain: MSQVSTEFIPTRIAILTVSNRRGEEDDTSGHYLRDSAQEAGHHVVDKAIVKENRYAIRAQVSAWIASDDVQVVLITGGTGLTEGDQAPEALLPLFDREVEGFGEVFRMLSFEEIGTSTLQSRAVAGVANKTLIFAMPGSTKACRTAWENIIAPQLDARTRPCNFHPHLKK
notes: MoaB of Escherichia coli; also called EcoMoaB; source: E. coli, purified (Ni-NTA)
- stoichiometry N [4]: 6

B3: Pyrococcus furiosus MPT-adenylyl-transferase MoaB, wild type (enzyme)
chain: MGVEEHKKEAPKTFKFGVITVSDKGAKGEREDKSGPLIIEELSKLGEHVYYKIVPDDKIEVLIALFEAIKSGADVVVTTGGTGITRRDITIESIKPLFDKELSFGEVFRAKSYEEVGYATVLTRATAGIIRGQERIVVVFSLPGSVNAVKTGLEIIKSEVFHILKHARE
notes: MoaB, MPT-adenylyl-transferase of Pyrococcus furiosus; residues from 1 on are in the construct (1-9/10/11 disordered in the crystal), Glu169 is named; predicted mass with tag 19,971.95 Da; also called PfuMoaB; PfuMoaB-WT; source: E. coli BL21(DE3), purified (Ni-NTA); not shown: His-tag, N-terminal, kept
- stoichiometry N [5]: 6
- stoichiometry N [6]: 3 and 2

B4: PfuMoaB I59R/I63R/F66R variant (enzyme, Pyrococcus furiosus)
chain: MGVEEHKKEAPKTFKFGVITVSDKGAKGEREDKSGPLIIEELSKLGEHVYYKIVPDDKREVLRALREAIKSGADVVVTTGGTGITRRDITIESIKPLFDKELSFGEVFRAKSYEEVGYATVLTRATAGIIRGQERIVVVFSLPGSVNAVKTGLEIIKSEVFHILKHARE
notes: MoaB of Pyrococcus furiosus with three arginines in the α3-helix; Increased tendency to precipitation was observed
- binding result [7]: binds

B5: G-domain of A. thaliana Cnx1 (domain or fragment, Arabidopsis thaliana)
chain: VPGPEYKVAILTVSDTVSAGAGPDRSGPRAVSVVDSSSEKLGGAKVVATAVVPDEVERIKDILQKWSDVDEMDLILTLGGTGFTPRDVTPEATKKVIERETPGLLFVMMQESLKITPFAMLSRSAAGIRGSTLIINMPGNPNAVAECMEALLPALKHALKQIKGDKR
notes: G domain of the molybdenum cofactor biosynthesis protein Cnx1 of Arabidopsis thaliana; also called AthCnx1G; Cnx1G; source: E. coli, purified (Ni-NTA)
- stoichiometry N [4]: 3
